Measurements published in US9073976B2, “ND2 peptides and methods of treating neurological disease” (NoNO Inc., priority 2010, dated 2015).
Entries after “also recorded” stand apart in the source; their conditions may differ. No end group written: not given here. *: point of attachment. Myristoyl = CCCCCCCCCCCCCC(=O)*

Key:
[1] = biological target: T1, Tat-ND2 310-321 (Homo sapiens, UniProt P03891); assay: ELISA plate coated with Tat-ND2 310-321, binding of biotinylated Src peptides; settings: FIG. 5C
T1 construct: 10; Tat-ND2 310-321; […]
Protocol: (§1) Src40-49-Tat indicate a fusion peptide in which the human HIV-1 tat protein transduction domain [[…]] […] (SEQ ID NO:10). […] The peptides were plated at a concentration of ˜5 uM.

[2] = biological target: T2, Src 40-58 (Homo sapiens, UniProt P12931, A55V); assay: Dot blot of GST-ND2 fragments probed with biotinylated Src 40-58; type: binding; settings: GST-fusion proteins spotted 1-10 ug, biotinylated peptide ~15 ug/ml, 2 hours
T2 construct: KPASADGHRG P SAAFVPAA
Protocol: GST-fusion proteins were designed using different fragments of ND2 and expressed and purified using standard protocols. These purified proteins were spotted onto membranes for probing with biotinylated Src 40-58 peptide or a scrambled control peptide (sSrc 40-58). In general, 1-10 ug of peptide or recombinant protein was spotted onto nitrocellulose and dried overnight. Membranes were blocked with 5% milk for 1 h at room temperature, then incubated with biotinylated peptides (˜15 ug/ml) for 2 hours the washed using standard wash buffers. Bound probe was detected using a short incubation with streptavidin conjugated to horseradish peroxidase (SA-HRP) and standard detection reagents, predominantly chemiluminescence kits. […] Further GST-constructs were made to narrow the core Src binding regions (FIG. 2A). Dot blots were made with these constructs and tested for their ability to capture biotinylated Src 40-58 (FIG. 2B).
(§2) Further GST constructs were made to identify the amino acid sequences in ND2.1.4 responsible for binding to Src 40-58 (FIG. 3A). Although these sequences are minimally responsible for binding, sequences corresponding to ND2 these sequences as well as those flanking them could be used for inhibition of the Src-ND2 interaction. […] As before, interactions with all of the fragments were confirmed in an ELISA assay (FIG. 3C), and the top binders were ND2 310-321, ND2 289-309, ND2 299-318, ND2 307-321 and full length ND2. […] All fragments tested were able to bind Src40-58 more strongly than the negative control peptide sSrc 40-58.

[3] = biological target: T3, ND2 310-321 (Homo sapiens, UniProt P03891); assay: Dot blot of Src fragments probed with biotinylated ND2 310-321; type: binding; settings: FIG. 5A
T3 construct: 7; NVKMKWQFEHTK
Protocol: as §1

[4] = test system: PACAP-enhanced NMDA-evoked currents in CA1 neurons; assay: Patch clamp of PACAP-enhanced NMDA-evoked currents in isolated CA1 neurons; type: cell-based, rat; settings: PACAP 1 nM in patch pipette, peptide 6 mM, 25 to 30 minutes after PACAP
Source text: Pituitary Adenylate Cyclase-activating Polypeptide (PACAP) selectively increases NMDA receptor mediated responses in rat neurons, and it is thought that this peptide is involved in the regulation of synaptic plasticity as well as both long term potentiation and depression. To examine the effect of ND2 310-321 and Src 40-49 on PACAP-enhanced NMDA-evoked currents, isolated CA1 neurons were subjected to a series of patch clamp experiments in the presence or absence of these peptides. […] ND2 310-321 can prevent PACAP-induced potentiation. Similar experiments were also performed using the Src-selective inhibitory peptide, Src(40-58) (14 mM), or the truncated peptide, Src(40-49) (6 mM). The responses prior to application of PACAP were normalized the responses at 25 to 30 minutes following application of PACAP. The bar graph indicates three groups of recordings from neurons and indicated the relative change in peak NMDAR currents under the three conditions. ND2 310-321, but not Src40-49, inhibits PACAP-enhanced NMDA-evoked currents. Thus, ND2 310-321 can be used to block PACAP enhanced NMDA-evoked signaling and can therefore be used in many neurological diseases and disorders associated with impaired with long term potentiation (e.g., aging, Alzheimer's, neurodegenerative diseases and neuronal disorders affect memory).

[5] = biological target: T4, Src 40-49 (Homo sapiens, UniProt P12931); assay: Dot blot of ND2 constructs binding Src 40-49; settings: FIG. 4A
T4 construct: KPASADGHRG
Source text: (§3) We next examined the ability of the ND2 constructs to bind to a shorter version of the Src binding domain—Src 40-49 (FIGS. 4A, B). ND2 310-321, ND2 307-318, and ND2 310-318 were the top binders of Src 40-49 by dot blot analysis (FIG. 4A).

[6] = biological target: T2, Src 40-58; assay: ELISA of coated ND2 constructs with biotin-Src 40-58; type: binding; settings: biotin-Src 40-58 at 6 uM
Protocol: GST-ND2, GST-ND2.1 or GST-ND2.1.4 were coated onto ELISA wells by incubating at the indicated concentration under standard conditions. Wells were blocked using 5% milk, and either biotin-Src 40-58 (FIG. 2C top) or biotin-sSrc 40-58 (bottom) were incubated at 6 uM.
as §2

[7] = biological target: T4, Src 40-49; assay: ELISA of ND2 constructs binding Src 40-49; settings: FIG. 4B
Source text: as §3

[8] = biological target: T5, ND2, Src, NMDAR subunits, and PSD95 in hippocampal neurons (Rattus norvegicus, UniProt P11662+Q9WUD9); assay: Immunocytochemistry colocalization in 14DIV hippocampal neurons; type: cell-based; settings: 1 uM peptide for 1 h, day 14 neurons
T5 construct: endogenous in cells; host or cells: primary hippocampal neurons from E17/E18 Wistar rats, 14 DIV
Protocol: A series of experiments was performed to examine the localization of ND2, Src, NMDAR subunits, and PSD95 in hippocampal neurons by immunocytochemistry in the presence of Tat, Tat-ND2 310-321, or Src 40-49-Tat. Briefly, hippocampal neurons were isolated from embryonic day #17/E18 Wistar rats, and cultured in neurobasal media containing coverslips with B27 and glutamax. Cells were then treated for 1 hr with luM peptide before fixing by standard methods. Proteins were visualized using specific antibodies and secondary antibodies coupled to fluorescent molecules. Colocalization of fluorescence was calculated by merging the images in Photoshop and calculating the % colocalized between pairs as the total colocalized fluorescence clusters divided by the total number of clusters (e.g., % colocalized ND2 with Src=(total colocalized)/(total ND2 clusters); % colocalized Src with ND2=(total colocalized)/(total Src clusters)).
Hippocampal neurons cultured on coverslips were treated with 1 uM of Src 40-49-Tat, Tat-ND2 310-321 or Tat for 1 h at the day 14. Then neurons were incubated in 4% paraformaldehyde and 4% sucrose in phosphate-buffered saline (PBS) for 10 minutes followed by 5 minutes […] at room temperature (RT). Cells were permeabilized with 0.25% Triton X-100 in PBS for 5 minutes and by treatment with 5% donkey serum in PBS for 30 minutes at RT. The cultures were incubated with a mixture of the primary antibodies, raised in various species, in 0.25% Triton X-100 PBS for 2 hours at RT, washed, and incubated for 1 hour at RT with a mixture of species-specific secondary antibodies all raised in donkey and conjugated to either Texas Red, or FITC fluorophores (1:200 dilution in 0.25% Triton X-100 PBS). The coverslips were washed with PBS and mounted using ProLong Gold antifade reagent (Invitrogen). Images were collected using a 60× pan-fluor objective on a Nikon Eclipse TE 200 microscope. The images were analyzed with PhotoShop 7 (Adobe, San Jose, Calif.). Brightness and contrast were adjusted, sharpened using the unsharpen mask tool, and the images were merged for color colocalization.
For quantification of the colocalization, the maximum intensities of the fluorophore channels were normalized and the background fluorescence of each channel seen in the dendrites was subtracted, the color images were merged. Two clusters in two different channels were considered colocalizing when at least 66% of the surface of one clusters in one of the two channels overlapped with a clusters in the other channel. For each combination of antibodies, three independent immunofluorescence experiments were done. Each measurement was taken from a 50-m-long dendritic segment (with an average width of 2 m). Colocalization was expressed as the percent of the total clusters analyzed.

[9] = test system: rats subjected to 3PVO; assay: Three pial vessel occlusion (3PVO) model of stroke, infarct volume; type: in vivo, rat
Protocol: The efficacy of ND2 inhibitors in the treatment of stroke was examined using the three pial vessel occlusion (3PVO) model of stroke. This is a permanent model of stroke that creates small but consistent infarcts at 24 hours.
Male Sprague Dawley rats (n=10 in each group) were surgically subjected to permanent occlusion of the pial vessels. One hour post-surgery, animals were given an intravenous injection of Saline, Tat-NR2B9c (Aarts et al, Science, 2002), Src 40-49-Tat or Tat-ND2 310-321 and allowed to further recover in their cages. 24 hours after surgery, brains were harvested, sliced and incubated with TTC to visualize the areas of infarction. The infarct volume of each animal was determined, as well as the average volumes for each group of ten.
Both peptides were myristoylated via an amide bond to the alpha-amino group of the N-terminal amino acid of the peptide.
Male Sprague Dawley rats (n=10 in each group) weighing between 230 and 290 g were used for this study. Experiments were performed on fasted rats (Free overnight access to water but not food). For permanent three pial vessel occlusion (3PVO) was performed as described previously (Forder J et al., 2005, supra). In brief, rats were anesthetized with a 0.5 ml/kg intramuscular injection of ketamine (100 mg/kg), acepromazine (2 mg/kg), and xylazine (5 mg/kg), supplemented with one-third of the initial dose as required. An anal temperature probe was inserted, and the animal was placed on a heating pad maintained at 37° C. The skull was exposed via a midline incision and scraped free of tissue. Using a dissecting microscope and a pneumatic dental drill, a 6- to 8-mm cranial window was made over the right somatosensory cortex (2 mm caudal and 5 mm lateral to bregma) by drilling a rectangle through the skull and lifting off the piece of skull while keeping the dura intact. The 3 pial arteriolar middle cerebral artery branches around the barrel cortex were selected and electrically cauterized through the dura. After the cauterizations, the scalp was sutured. […]

[10] = Arterial blood pressure after rapid high-dose intravenous bolus; settings: ~25 mg/kg bolus injection into the tail vein
Protocol: Rats with surgically implanted devices to measure arterial pressure were dosed with ˜25 mg/kg of the respective peptides as a bolus injection into the tail vein at 10 minutes post monitoring.

[11] = biological target: T6, binding of biotinylated Src40-49 to ND2 310-321 (Homo sapiens, UniProt P03891+P12931); assay: Competition ELISA, binding of biotinylated Src40-49 to coated ND2 310-321; settings: FIG. 5D, FIG. 7
T6 construct: 7; NVKMKWQFEHTK; KPASADGHRG
Protocol: Competition ELISAs were also performed. […] In a similar manner, ND2 constructs bearing amino acid sequences from the 300-321 region are able to act as inhibitors of the interaction between ND2 and Src.

Bio-sSrc 40-49: biotinylated scrambled control peptide (GAAKRPSDGH; also: biotinylated, position not given here)
binding to coated Tat-ND2 310-321 (ELISA) [1]: no binding was seen

ITLLPMSNNVKMKWQFEHTK [ND2 302-321]
binding of biotinylated Src 40-58 (dot blot) [2]: binding was seen

KPASADGHRG [Src40-49]
binding of biotinylated ND2 310-321 (dot blot) [3]: bound ND2 310-321 | effect on PACAP-enhanced NMDA-evoked currents ([4]; listed as Src 40-49): does not

MSNNVKMKWQFE [ND2 307-318]
binding of Src 40-49 (dot blot) [5]: top binders; also recorded: strong binding

MSNNVKMKWQFEHTK [ND2 307-321]
binding of biotin-Src 40-58 (ELISA) [6]: top binders | binding of biotinylated Src 40-58 (dot blot) [2]: binding was seen

NLYFYLRLIYSTSITLLPMSN [ND2 289-309]
binding of biotin-Src 40-58 (ELISA) [6]: top binders | binding of biotinylated Src 40-58 (dot blot) [2]: binding was seen

NLYFYLRLIYSTSITLLPMSNNVKMKWQFEHTK (not fully specified) [ND2.1.4, GST-fusion protein of ND2 fragment AA 289-321]
binding of biotin-Src 40-58 (ELISA) [6]: concentration-dependent manner | binding of biotinylated Src 40-58 (dot blot) [2]: most effective sub fragment for binding Src 40-58 | binding of biotinylated Src 40-58 (dot blot) ([2]; listed as ND 2.1.4): better than ND2.1.3

NVKMKWQFE [ND2 310-318]
binding of Src 40-49 (dot blot) [5]: top binders; also recorded: strong binding

NVKMKWQFEHTK [ND2 310-321]
binding of biotin-Src 40-58 (ELISA) [6]: top binders | binding of biotinylated Src 40-58 (dot blot) [2]: binding with high relative affinity | binding of Src 40-49 (dot blot) [5]: top binders; also recorded: strong binding | effect on PACAP-enhanced NMDA-evoked currents [4]: inhibits | binding of Src 40-49 (ELISA) [7]: strongest binding

STSITLLPMSNNVKMKWQFE [ND2 299-318]
binding of biotin-Src 40-58 (ELISA) [6]: top binders | binding of biotinylated Src 40-58 (dot blot) [2]: binding was seen

YGRKKRRQRRR [Tat]
colocalization of Src and ND2 [8]: does not

YGRKKRRQRRRKLSSIESDV [Tat-NR2B9c]
decline in infarct volume ([9]; 3 nmol/g intravenous one hour post-surgery, 24 hours after surgery, n=10): approximately 40% | mean arterial blood pressure after bolus [10]: about one half of normal

YGRKKRRQRRRKPASADGHRG [Tat-Src40-49]
binding of biotinylated ND2 310-321 (dot blot) [3]: bound ND2 310-321 | inhibition of binding of biotinylated Src40-49 to ND2 310-321 (competition ELISA) [11]: inhibited

YGRKKRRQRRRNVKMKWQFEHTK [Tat-ND2 310-321]
mean arterial blood pressure after bolus [10]: about one half of normal

bio-Src 40-49: biotinylated Src 40-49 peptide (KPASADGHRG; also: biotinylated, position not given here)
binding to coated Tat-ND2 310-321 (ELISA) [1]: able to bind in a concentration dependent manner

myristoyl- MSNNVKMKWQFEHTK (Myristoyl-MSNNVKMKWQFEHTK) [Myr2-ND2]
protection against damage from the stroke, second experiment (FIG. 22) ([9]; given intravenously 1 hour after onset of stroke, relative to Tat-ND2): equivalent or superior protection

B1: ND2.1: GST-fusion protein of ND2 sub fragment AA239-321 (protein)
chain: WLTPLIPSTLLSLGGLPPLTGFLPKWAIIEEFTKNNSLIIPTIMATITLLNLYFYLRLIYSTSITLLPMSNNVKMKWQFEHTK
modifications: left off: a dimerising Fc or GST
binding of biotin-Src 40-58 (ELISA) [6]: concentration-dependent manner | binding of biotinylated Src 40-58 (dot blot) [2]: can also bind Src 40-58; also recorded: better than ND2.1.3
